# According to patent US20110070156A1 (published 2011):
# T1: Trop-2 (EGP-1, epithelial glycoprotein-1) (human, UniProt P09758 27-323)
# T1 construct: whole, on cells
# T1 sequence (looked up): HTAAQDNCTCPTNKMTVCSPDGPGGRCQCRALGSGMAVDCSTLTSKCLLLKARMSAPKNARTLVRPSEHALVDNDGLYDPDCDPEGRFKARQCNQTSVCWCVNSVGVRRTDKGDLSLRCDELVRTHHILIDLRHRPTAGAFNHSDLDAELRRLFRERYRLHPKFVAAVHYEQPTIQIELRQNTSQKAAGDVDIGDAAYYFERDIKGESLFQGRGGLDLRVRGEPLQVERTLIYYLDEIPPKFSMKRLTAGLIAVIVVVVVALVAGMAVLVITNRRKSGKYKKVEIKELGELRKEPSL
# B1: hRS7 IgG (humanized RS7, anti-Trop-2 / anti-EGP-1) (antibody, V domains shown)
# VH: QVQLQQSGSELKKPGASVKVSCKASGYTFTNYGMNWVKQAPGQGLKWMGWINTYTGEPTYTDDFKGRFAFSLDTSVSTAYLQISSLKADDTAVYFCARGGFGSSYWYFDVWGQGSLVTVSS
# VL: DIQLTQSPSSLSASVGDRVSITCKASQDVSIAVAWYQQKPGKAPKLLIYSASYRYTGVPDRFSGSGSGTDFTLTISSLQPEDFAVYYCQQHYITPLTFGAGTKVEIKR
# Assays:
# [1] = biological target: Trop-2 (EGP-1, epithelial glycoprotein-1) (human) (UniProt P09758)
# [2] = biological target: Trop-2 (EGP-1, epithelial glycoprotein-1) (human) (UniProt P09758); test: cell-based or functional assay
# [3] = biological target: Trop-2 (EGP-1, epithelial glycoprotein-1) (human) (UniProt P09758); test: ELISA on Trop-2-expressing cell lines PC-3 and Calu-3
# [4] = biological target: T1, Trop-2 (EGP-1, epithelial …); test: ELISA on Trop-2-expressing cell lines PC-3 and Calu-3; apparent dissociation constant
Molecule,Kd [1] [nM],"EC50, MTS cell proliferation assay, Calu-3 cells [2] [nM]","EC50, MTS cell proliferation assay, MDA-MB-468 cells [2] [nM]","EC50, MTS cell proliferation assay, ME-180 cells [2] [nM]","EC50, MTS cell proliferation assay, T-47D cells [2] [nM]",fold of apparent KD against hRS7 [3] [fold],Kd [4] [nM]
2L-Rap(Q)-hRS7,0.28,8.5,3.8,1.5,2,2,–
B1,–,–,–,–,–,–,0.14
